Reference: US20110311544A1

Tests used:
[1] = target: CD71 (transferrin receptor) on human tumour cell lines (human) (UniProt P02786); test: quantitative flow cytometry on A375 cells, background control, medium FCS, no Tf-Fe
[2] = target: CD71 (transferrin receptor) on human tumour cell lines (human) (UniProt P02786); test: quantitative flow cytometry on A375 cells, background control, medium human AB serum, with Tf-Fe
[3] = target: CD71 (transferrin receptor) on human tumour cell lines (human) (UniProt P02786); test: quantitative flow cytometry on A375 cells, background control, medium FCS, with Tf-Fe
[4] = target: CD71 (transferrin receptor) on human tumour cell lines (human) (UniProt P02786); test: quantitative flow cytometry on A375 cells, background control, medium human AB serum, no Tf-Fe
[5] = target: CD71 (transferrin receptor) on human tumour cell lines (human) (UniProt P02786); test: flow cytometry, biotin-OKT9 on A375 cells after pre-incubation with control ascites NS1 at 37° C. (no competitor)
[6] = target: CD71 (transferrin receptor) on human tumour cell lines (human) (UniProt P02786); test: flow cytometry, biotin-OKT9 on A375 cells after pre-incubation with control ascites NS1 at 4° C. (no competitor)

Chain of UniProt P02786 (P02786 whole entry): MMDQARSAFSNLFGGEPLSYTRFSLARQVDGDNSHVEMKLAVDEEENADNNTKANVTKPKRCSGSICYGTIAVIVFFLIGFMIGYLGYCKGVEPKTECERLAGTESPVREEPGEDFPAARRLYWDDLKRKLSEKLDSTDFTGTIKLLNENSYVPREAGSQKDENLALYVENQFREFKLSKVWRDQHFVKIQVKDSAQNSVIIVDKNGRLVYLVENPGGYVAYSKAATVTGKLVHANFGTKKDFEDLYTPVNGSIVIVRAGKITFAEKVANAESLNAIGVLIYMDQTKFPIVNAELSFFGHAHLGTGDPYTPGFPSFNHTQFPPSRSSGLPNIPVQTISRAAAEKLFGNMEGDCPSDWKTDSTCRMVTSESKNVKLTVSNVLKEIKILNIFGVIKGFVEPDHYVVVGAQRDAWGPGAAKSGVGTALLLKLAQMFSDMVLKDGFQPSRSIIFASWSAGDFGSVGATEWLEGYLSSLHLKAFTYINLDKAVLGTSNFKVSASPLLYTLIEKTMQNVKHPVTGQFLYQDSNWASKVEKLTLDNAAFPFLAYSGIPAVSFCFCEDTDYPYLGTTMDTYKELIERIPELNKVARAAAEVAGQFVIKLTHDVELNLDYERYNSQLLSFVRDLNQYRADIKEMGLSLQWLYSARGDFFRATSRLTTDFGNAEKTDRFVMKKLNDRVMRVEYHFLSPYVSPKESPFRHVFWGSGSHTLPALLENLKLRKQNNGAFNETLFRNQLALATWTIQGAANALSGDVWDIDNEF

Row | Sites [1] [sites] | Sites [2] [sites] | Sites [3] [sites] | Sites [4] [sites] | Mean Fluorescence intensity [5] | Mean Fluorescence intensity [6] | Substance
1 | 3250 | 5790 | 3310 | 5790 |  |  | control ascites NS1
2 |  |  |  |  | 8.84 | 6.53 | biotin-labeled anti-CD71 mAb OKT9 (antibody)
